The koff is a measure of how fast the partners let go of each other.

Experiment [1] concerns the target PcrV of P. aeruginosa strain PA103 (on TTSS-induced bacteria) (Pseudomonas aeruginosa strain PA103). As to the kind of experiment: cell-based or functional assay. Further: test concentration or dose not given here.
Experiment [2] has as its target T1, recombinant PcrV protein (rPcrV), strain PAO1, amino acid residues 1-294, C-terminal His6 (Pseudomonas aeruginosa strain PAO1). As to the kind of experiment: ELISA, periplasmic extract on biotinylated rPcrV. On the technique in general: ELISA stands for enzyme-linked immunosorbent assay.
The target in experiment [3] is T1, recombinant PcrV protein (rPcrV), …. As to the kind of experiment: SPR ProteOn, periplasmic extract on immobilised rPcrV.
Experiment [4] concerns the target T2, PcrV fragment (aa 144-257), C-terminal c-myc and His6 tags (Pseudomonas aeruginosa).
T2 construct: also called small PcrV fragment
As to the kind of experiment: ELISA, binder coated; NB = binding signal = background signal.

Experiment [5] has as its target Full length PcrV (aa 1-294), C-terminal c-myc and His6 tags (Pseudomonas aeruginosa strain PAO1). As to the kind of experiment: ELISA, binder coated.

B1: Nanobody 7E09 (VHH)
VHH: EVQLVESGGGLVQAGGSLRLSCAASGRTFSSYIMGWFRQAPGKAREFVADITWGQRPYYADSVKGRFTISRDNAKNTVYLEMNSLKPEDTAVYYCAADLGVVIREEHAYWGQGTLVTVSS
notes: also called 07E09
For the molecule B1, the “cytotox assay (% inhibition), P3X63, PA103” value in experiment [1] is 16%. The “binding ELISA (OD 450 nm)” value in experiment [2] is 2.59 OD 450 nm. In addition, in experiment [3], the koff was 0.0004 s⁻¹. Also, the values for the binding result in experiment [4] and in experiment [5] were “no binding” and “binds”, respectively.

The values above are taken from US20190055322A1 (Ablynx, published 2019).
